Literature values, collected in publication PMC7561359.

Biological target: IFNAR1 (Homo sapiens) (UniProt P17181)
Chain of UniProt P17181 (P17181 28-436): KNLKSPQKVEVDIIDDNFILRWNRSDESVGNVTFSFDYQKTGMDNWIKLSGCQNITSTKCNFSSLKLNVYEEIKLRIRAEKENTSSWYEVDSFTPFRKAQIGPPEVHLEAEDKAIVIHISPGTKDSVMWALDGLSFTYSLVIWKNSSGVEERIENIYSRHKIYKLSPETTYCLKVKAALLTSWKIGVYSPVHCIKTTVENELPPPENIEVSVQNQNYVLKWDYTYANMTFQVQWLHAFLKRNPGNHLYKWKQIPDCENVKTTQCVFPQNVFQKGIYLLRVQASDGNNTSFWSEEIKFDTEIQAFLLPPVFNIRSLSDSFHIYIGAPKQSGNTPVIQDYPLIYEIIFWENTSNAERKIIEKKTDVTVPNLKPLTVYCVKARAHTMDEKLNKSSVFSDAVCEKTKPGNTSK

Kd: 100 nM
Substance: IFNβ (from UniProt P01574)
